Test results reported in US20240401013.

Tests used:
[1] = test system: PE-Bce integrase fusion (PASTE v4; printed Bcel); assay: cell_activity; conditions: PASTE v4 comparator, Hepa1c1c7; att sequences not given
[2] = test system: PE-Bxb1 integrase fusion (PASTE v3; printed Bxbl); assay: cell_activity; conditions: PASTE v3 comparator, Hepa1c1c7; att sequences not given

Substance	activity (% mCherry-positive cells) [1]	activity (% mCherry-positive cells) [2]
Bce att sites (PASTE v4)	0.5	
Bxb1 att sites (PASTE v3)		3.8
